Reference: PMC6780499, “Characterization, Recombinant Production and Structure-Function Analysis of NvCI, A Picomolar Metallocarboxypeptidase Inhibitor from the Marine Snail Nerita versicolor” (Marine Drugs, 2019)
No end group written: not given here.

How the values were obtained:
hCPD = target: T1, hCPD (Homo sapiens, UniProt O75976); assay: Ki determination, tight-binding inhibition of metallocarboxypeptidase; assay type: biochemical; details: NI: No inhibitory activity detected for the [I]0 range from 1 nM to 1 mM
T1 sequence (O75976 32-1380): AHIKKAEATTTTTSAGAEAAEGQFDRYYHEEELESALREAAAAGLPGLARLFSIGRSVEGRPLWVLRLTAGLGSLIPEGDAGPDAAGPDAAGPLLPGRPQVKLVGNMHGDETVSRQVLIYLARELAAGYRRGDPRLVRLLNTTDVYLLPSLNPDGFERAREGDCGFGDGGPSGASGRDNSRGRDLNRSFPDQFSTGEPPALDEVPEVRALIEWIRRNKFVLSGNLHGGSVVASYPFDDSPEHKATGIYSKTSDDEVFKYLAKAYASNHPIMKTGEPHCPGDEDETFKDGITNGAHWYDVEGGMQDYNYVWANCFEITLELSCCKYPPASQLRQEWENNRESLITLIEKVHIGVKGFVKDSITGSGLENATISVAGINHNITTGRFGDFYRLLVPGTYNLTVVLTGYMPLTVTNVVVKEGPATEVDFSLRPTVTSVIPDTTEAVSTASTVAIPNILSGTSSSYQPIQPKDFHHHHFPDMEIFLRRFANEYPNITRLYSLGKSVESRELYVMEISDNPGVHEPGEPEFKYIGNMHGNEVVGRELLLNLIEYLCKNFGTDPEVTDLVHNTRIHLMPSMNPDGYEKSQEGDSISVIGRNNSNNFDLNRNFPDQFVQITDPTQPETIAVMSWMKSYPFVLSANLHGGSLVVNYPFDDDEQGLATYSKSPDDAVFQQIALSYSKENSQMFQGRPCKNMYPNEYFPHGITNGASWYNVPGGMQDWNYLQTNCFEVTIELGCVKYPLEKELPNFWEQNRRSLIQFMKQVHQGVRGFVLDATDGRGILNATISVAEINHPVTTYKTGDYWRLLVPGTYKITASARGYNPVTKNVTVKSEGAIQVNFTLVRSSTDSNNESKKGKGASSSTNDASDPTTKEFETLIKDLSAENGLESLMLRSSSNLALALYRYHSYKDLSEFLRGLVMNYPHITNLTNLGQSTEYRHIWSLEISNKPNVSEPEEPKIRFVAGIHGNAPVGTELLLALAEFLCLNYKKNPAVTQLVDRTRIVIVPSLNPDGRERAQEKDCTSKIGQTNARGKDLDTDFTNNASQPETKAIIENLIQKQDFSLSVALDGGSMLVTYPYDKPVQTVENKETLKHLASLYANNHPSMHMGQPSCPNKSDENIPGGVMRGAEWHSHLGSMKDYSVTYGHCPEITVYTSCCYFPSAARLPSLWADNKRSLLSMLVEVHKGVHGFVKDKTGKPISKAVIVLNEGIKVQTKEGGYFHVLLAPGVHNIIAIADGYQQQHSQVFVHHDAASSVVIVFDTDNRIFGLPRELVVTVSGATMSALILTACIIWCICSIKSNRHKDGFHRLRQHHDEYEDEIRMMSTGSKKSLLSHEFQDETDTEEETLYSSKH
Experimental: (§1) Inhibitory activities against CPA- and CPB-type forms (bovine and human variants of CPA1, CPA2, CPA4, CPB1, and TAFI) were assayed for all extracts, subject to the experimental conditions that enzyme (E), substrate (S) and inhibitor (I) concentrations as well as the [I]/[E] ratio and preincubation time followed the requirements for tight-binding inhibitor assays. Similar approaches were followed to measure the activities of proteases of different catalytic types, like pepsin, papain, trypsin and subtilisin [45, 46, 47, 48]. All assays were performed in triplicate at 25 °C in a multiplexed manner. For 96-well assays an iEMS spectrophotometer reader/dispenser FM (Labsystems, Finland) was used with a final reaction volume of 250 μL. For cuvette assays, a Cary 400 Bio spectrophotometer (Varian Inc., Palo Alto, CA, USA) spectrophotometer was used with a final reaction volume of 1 ml. The reactions were followed at 5 s intervals for 5 min and recorded as initial velocities. In the protease inhibition assays, mixtures of activity buffer, biological sample and enzyme were preincubated at 25 °C for 10min, before substrate addition. The assay conditions were as follows: for CPA-like enzymes, 7.0nM CPA, 0.1mM AAFP substrate in 20mM Tris-HCl pH 7.5, 500mMNaCl, 1% v/v dimethyl sulfoxide (DMSO), 0.05% w/v BRIJ-35 was used. For CPB-like enzymes, CPB 3.0nM CPB, 0.1mM AAFA substrate and activity buffer of 20 mM Tris-HCl pH [50].
(§2) The Ki values of natural and recombinant NvCI against bCPA1, hCPA1, hCPA2, rat CPA3, hCPA4, hCPB1, bTAFI, hTAFI, hCPD and hCPZ were determined by measuring the enzymatic residual activity (Vi/V0 = a) at different inhibitor concentrations and using a fixed enzyme and substrate concentrations as described above, where vi and v0 are the fraction of enzymatic activity in the presence and absence of inhibitor, respectively, in terms of initial velocities. The determination of Ki values was carried out on equilibrium conditions ([E0]/Ki ≤ 10), using a previously determined preincubation time of 15 min, required to establish enzyme-inhibitor equilibrium. Working temperature was 37 °C. The best estimates of Ki values were obtained by fitting the experimental data to the equation for tight-binding inhibitors by non-linear regression using the GraphPad Prisma 5 software (GraphPad Software, Inc., San Diego, CA, USA) at p < 0.05. The real Ki values against each of these A/B-type MCPs were calculated according to the equation described by Morrison and Copeland [19, 20].

hCPA4 = target: T2, hCPA4 (Homo sapiens, UniProt Q9UI42); assay: as above; assay type: biochemical; details: tight-binding equation fit, equilibrium conditions; substrate AAFP 0.1mM, 20mM Tris-HCl pH 7.5, 500mM NaCl; preincubation 15 min; 37 °C; means (n = 3) ± SD
T2 sequence (Q9UI42 114-421): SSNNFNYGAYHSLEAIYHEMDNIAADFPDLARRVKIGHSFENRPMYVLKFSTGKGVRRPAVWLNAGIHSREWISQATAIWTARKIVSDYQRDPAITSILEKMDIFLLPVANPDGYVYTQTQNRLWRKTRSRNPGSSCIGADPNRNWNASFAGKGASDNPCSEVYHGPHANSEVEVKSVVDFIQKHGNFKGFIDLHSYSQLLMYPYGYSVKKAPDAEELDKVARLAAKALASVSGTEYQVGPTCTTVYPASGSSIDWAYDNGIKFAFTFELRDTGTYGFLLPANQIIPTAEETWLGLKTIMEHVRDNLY
Experimental: as §1, §2

Question: For “NvCI: 53-residue, three-disulphide proteinaceous metallocarboxypeptidase inhibitor from the marine snail Nerita versicolor; major isoform; UniProt P86912 (FHVPDDRPCINPGRCPLVPDATCTFVCKAADNDFGYECQHVWTFEGQRVGCYA; disulfide (positions not given here); also: three disulphides, pairing not given here; UniProt P86912 1-53, looked up)”, which Ki (hCPD) is on record?
Answer: Its Ki is > 1000 µM.

Question: And the Ki (hCPA4)?
Answer: Its Ki is 9.7 ± 1 pM.
